In patent publication US20050084492A1, “Assay method to monitor the response of anti-cytokine therapy” (priority 2003, published 2005):

Columns and labels:
IL-6 = IL-6 (Homo sapiens, UniProt P05231); assay: Inhibition of IL-6/sIL-6R/IL-1β induced SAA production from A498 cell line, SAA ELISA; format: cell-based; conditions: A498 cells; IL-6 (100 ng/ml), sIL-6R (200 ng/ml) and IL-1b (1 ng/ml) pre-incubated with serial dilutions of antibody; dose dependent (FIG. 2A & B)
Source text: (§1) A-498, a renal carcinoma cell line was purchased from ATCC (Rockville, Md.). Cells were maintained according to ATCC instructions in log phase of cell growth in DMEM/10% heat-inactivated FBS, 1% L-Gut, 1% NEAA and 1% NaPyr. CNTO 328, an anti-human IL-6 antibody developed at Centocor and disclosed in U.S. patent application Ser. No. 10/280,716, hereby incorporated by reference into the present application, was used at several concentrations in the assay. F 105, human anti-gp 120 IgGl, also developed at Centocor, was used as a negative control antibody. Anti-SAA monoclonal antibody (clone REU-86.2, Research Diagnostics, Inc.) was used for SAA immunostaining.
(§2) A498 cells were cultured for 24 hrs in 96-well flat bottom tissue culture plates at a concentration of 6×10^4 cells/100 ul in DMEM complete media at 37 °C./5% CO2. Cells were washed with PBS then starved for 1 hr in 100 ul of serum free DMEM media at room temp. A combination of IL-6 (100 ng/ml), sIL-6R (200 ng /ml) and IL-1b (1 ng/ml) mixture was incubated with serial dilutions of CNTO 328 or F105 control antibody for 30 minutes at room temperature. 100 ul of the mixture was added to the cells and incubated at 37 °C./5% CO2 overnight.
(§3) The cell culture supernatant was assayed immediately for hSAA production using Biosource human SAA kit (Camrillo, Calif.) following manufacturer's instructions.

A498 cells = assay: Induction of SAA production in A498 renal carcinoma cells by cytokines, SAA ELISA of culture supernatant; format: cell-based; conditions: human renal tumor A498 cells stimulated overnight with the cytokine(s); SAA in culture supernatant by ELISA (FIG. 2A)
Source text: as §1, §2, §3

Sequence of IL-6 (P05231 30-212): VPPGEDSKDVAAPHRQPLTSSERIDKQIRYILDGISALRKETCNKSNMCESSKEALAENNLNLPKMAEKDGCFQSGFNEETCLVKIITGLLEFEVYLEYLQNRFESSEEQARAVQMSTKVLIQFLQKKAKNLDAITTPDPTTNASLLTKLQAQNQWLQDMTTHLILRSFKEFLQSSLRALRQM

## CNTO 328: an anti-human IL-6 antibody developed at Centocor and disclosed in U.S. patent application Ser. No. 10/280,716
IL-6
  inhibition of IL-6/sIL-6R/IL-1β induced SAA production: completely inhibited

## IL-1b: cytokine used to stimulate A498 cells
A498 cells
  SAA produced in culture: < 100 ng/mL
